The values that follow come from US20220265772A1, “USES OF DAN FAMILY BMP ANTAGONISTS FOR INHIBITING OCULAR NEOVASCULARIZATION AND TREATING OCULAR CONDITIONS” (9636137 Canada Inc., priority 2019, published 2022).

Experiment [1] concerns choroidal neovascularization. The experiment is described as follows: Laser-induced choroidal neovascularization (CNV). The class given is in vivo, mouse. How it is done: Three-month-old C57BL/6J mice were anesthetised with a ketamine/xylazine mix prior to applying a photocoagulating laser (400 mW intensity, 0.05 s exposure time). Four spots were burned around the optical nerve. Mice received 100 ng of recombinant human DAND5 intravitreally or similar volume of vehicle in the contralateral eye. Eyes were enucleated after 14 days and processed for immunostaining.
Ocular globes were initially fixed for 15 min in 4% paraformaldehyde (PFA). Retinas or choroids were collected after eyes dissection in PBS and blocked 1 h in PBS 3% BSA 0.1% Triton X-100™. Fixation was prolonged in 1% PFA overnight for choroid extraction or eyes sectioning. […] Quantitative analysis of tufts, vaso-obliterated or vessel areas were performed using imageJ/Swift_NV™ as previously described (1). Neovascular tuft formation was quantified by comparing the number of pixels in the affected areas with the total number of pixels in the retina. The avascular area in the retina was measured in the same way using an anti-DAND5/COCO polyclonal goat IgG antibody (AF3047, R&D systems).
The effects of DAND5 on choroidal neovascularization (CNV) were also evaluated by subjecting mice to laser-induced CNV, a model which recapitulates the CNV occurring in wet AMD patients. […]

Another experiment deals with mitochondria. The experiment is described as follows: Immunofluorescence localization of DAND5 in treated HUVECs. As to conditions: HUVECs exposed for 1 h. The class given is cell-based, human. On the procedure:
FIG. 9: HUVECs were plated to confluence and exposed or not to Dand5 for 1 hour. Dand5 was not detected before treatment in HUVECs (not shown).
To test where DAND5 is localizes in treated HUVECs, we exposed HUVECs to human recombinant DAND5 for 1 h and performed immune-fluorescence using human anti-mitochondrial antigen antibody and a human anti-DAND5 antibody.

The next experiment has as its system Wnt-induced angiogenesis. The experiment is described as follows: Wnt1 and DAND5 co-injection during retinal vascular development (P1 to P5). The class given is in vivo, mouse. The note with it: quantification of vascular branches in treated eyes. On the procedure: FIG. 13 is a panel with pictures and graphs showing that Dand5 opposes Wnt1-mediated hypervascularization during retinal vascular development. FIG. 13A: Schematic representation of experimental design. C57B6 pups were injected at P1 with PBS, Dand5 (60 ng/mL), Wnt1, or Wnt1 and Dand5 together at various molar ratios (1N, 5N and 10N). FIG. 13B: Representative images of retinas treated with PBS, Dand5 (1N) or Wnt1 (1N). FIG. 13C: Representative images of retinas treated with PBS or with Wnt1 (5N and 10N) alone or in combination with Danb5. Dand5 Flatmounts retinas were stained with Isolectin B4 to visualize the vasculature. FIG. 13D: Quantification of vascular branches in treated eyes. […] To address the antagonism of DAND5 on Wnt-induced angiogenesis, retinas were injected with recombinant DAND5 (60 ng) with increasing concentrations of Wnt1 (0, 1, 5 or 10× molar ratio) at P1 and retinas were harvested at P5 (FIG. 13A).

A further experiment relates to Wnt signaling. The experiment is described as follows: Canonical Wnt signaling in HUVECs (immunoblotting, β-catenin immunofluorescence). The class given is cell-based, human. On the procedure:
FIG. 12 is a panel with a schematic, pictures showing that Dand5 reduces canonical Wnt signaling in HUVECs. HUVECs were plated to confluence and received a 2 h scratch in the presence or absence of Dand5 ([…]) or IWR1 (3 μM). β-catenin (green) localization was examined by immunofluorescence with phalloidin and DAPI (nuclei) to identify the cell boundaries and nucleus. […] Scale bars, […]).
Cells were washed with cold PBS and extracted in Laemmli's buffer, followed by sonication. Samples were run on SDS-PAGE gels and transferred onto nitrocellulose membranes. Membranes were blocked with 5% Bovine Serum Albumin (BSA) and probed with primary antibodies overnight at 4° C.: beta-Catenin (Cell Signaling Technology), phospho-beta-catenin (Cell Signaling Technology), Axin2 (Cell Signaling Technology), beta-Actin (Santa Cruz Technologies). HRP-conjugated secondary antibodies (Vector Laboratories) were used to detect primary antibodies.
We next evaluated the molecular mechanisms underlying the effects of DAND5 on endothelial cells. […] Wnt signaling regulates fundamental aspects of vascular development, including cell fate specification, proliferation and survival. […] HUVECs were treated for up to 24 hours with DAND5 or IWR-1, an inhibitor of Wnt canonical signaling. Protein extracts were harvested and subjected to immunoblotting against downstream effectors of Wnt signaling. […] The levels of β-catenin at different subcellular localizations are regulated by a variety of processes including site-specific phosphorylation of β-catenin. In the absence of an active Wnt signaling, β-catenin localization at cellular junctions is reduced and cytoplasmic β-catenin associates with the destruction complex (6).

In experiment [2] the test system is human pluripotent stem cells / stem cell-derived human cones. The experiment is described as follows: Cone photoreceptor differentiation, maintenance and survival (earlier study and unpublished work). The class given is cell-based. The note with it: in vitro, unpublished work. The source says:
Inactivation of DAND5 in mice leads to multiple laterality and cardiovascular defects and a significant proportion of animals die perinatally. […] However, prior to the present invention, it was unknown that DAND5, or any of the six other members of the DAN family of BMP antagonists, could play a role in inhibiting and preventing ocular neovascularization and pathological angiogenesis.

[3] abbreviates: HUVECs treated for up to 24 hours, immunoblotting.

B1: DAND5: human recombinant DAND5/COCO biologically active fragment produced in E. coli, predicted 18.2 kDa monomer, R&D systems 3047-CC-050 (protein)
chain: MRPEPQSPRPQSWAAANQTWALGPGALPPLVPASALGSWKAFLGLQKARQLGMGRLQRGQDEVAAVTLPLNPQEVIQGMCKAVPFVQVFSRPGCSAIRLRNHLCFGHCSSLYIPGSDPTPLVLCNSCMPARKRWAPVVLWCLTGSSASRRRVKISTMLIEGCHCSPKA
Consider B1, for which, in experiment [1] (OIR and laser-induced CNV together), the “inhibitory effect on retinal and choroidal neovascularization compared with Flt1Fc” value is recorded as “significantly better than VEGF inhibition with Flt1Fc”. Also, the “area of CNV” value in experiment [1] (laser impact, intravitreal delivery, 14 days, compared with controls) is reported as “significant decrease in the area of CNV”. Further, the co-localization with mitochondria entry in the experiment with mitochondria was “robust co-localization of DAND5 with mitochondria”. The co-localization with mitochondria entry in the experiment on mitochondria (listed as Dand5) is reported as “co-localizes with mitochondria”. Also, the “mutual antagonism on vascular branches” value in the experiment with Wnt-induced angiogenesis is on record as “mutually antagonist activities”. Also, in the experiment with Wnt signaling (setting [3]), the “levels of Axin2” value is “increased levels of Axin2”, the “levels of phosphorylated beta-catenin” value is “increased levels of phosphorylated beta-catenin” and the “levels of total beta-catenin” value was “decreased levels of total beta-catenin”. Also, the “cytoplasmic β-catenin” value in the experiment on Wnt signaling (confluent HUVECs, 2 h scratch, Dand5 60n/mL or IWR1 3 μM) was “increased cytoplasmic β-catenin”. Also, the β-catenin subcellular localization result in the experiment with Wnt signaling (staining of HUVECs cultured in the presence of DAND5) was “decreased membrane localization and increased internalization of β-catenin in the cytoplasm”. Further, in experiment [2], the “survival of stem cell-derived human cones” value is listed as “displays pro-survival activities”.
